Assay results: patent publication US20210332142A1 (Genentech, published 2021)

Legend:
[1] = molecular target: T1, recombinant cyno Tie2 extracellular domain (cynomolgus monkey, UniProt Q02763 23-748 (human entry)); test: SPR multi-cycle kinetics, IgG captured, kinetic analysis
T1 construct: also called Recombinant cyno Tie2 ECD; cy Tie2
T1 chain: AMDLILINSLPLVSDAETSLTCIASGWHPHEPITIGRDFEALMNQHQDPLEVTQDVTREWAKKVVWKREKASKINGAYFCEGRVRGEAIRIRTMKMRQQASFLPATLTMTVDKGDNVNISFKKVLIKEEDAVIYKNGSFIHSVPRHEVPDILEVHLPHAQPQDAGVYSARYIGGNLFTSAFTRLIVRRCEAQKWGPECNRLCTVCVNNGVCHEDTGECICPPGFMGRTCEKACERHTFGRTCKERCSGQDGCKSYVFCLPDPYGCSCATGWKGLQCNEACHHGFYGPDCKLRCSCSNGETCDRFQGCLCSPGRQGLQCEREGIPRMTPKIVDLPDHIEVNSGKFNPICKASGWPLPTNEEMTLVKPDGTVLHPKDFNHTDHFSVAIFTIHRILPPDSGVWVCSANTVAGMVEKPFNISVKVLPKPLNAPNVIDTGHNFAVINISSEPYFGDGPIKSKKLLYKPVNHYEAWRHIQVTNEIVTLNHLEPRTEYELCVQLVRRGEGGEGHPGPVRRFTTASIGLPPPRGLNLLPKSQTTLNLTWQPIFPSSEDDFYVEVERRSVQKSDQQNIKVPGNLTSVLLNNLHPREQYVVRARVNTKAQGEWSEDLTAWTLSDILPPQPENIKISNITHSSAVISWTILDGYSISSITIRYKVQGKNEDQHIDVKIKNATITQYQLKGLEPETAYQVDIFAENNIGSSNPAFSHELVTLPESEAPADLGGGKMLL
Experimental: Binding to recombinant human and cyno Tie2 was analyzed using a high performance multi-cycle kinetics format with a contact time of 60 seconds, a dissociation time of 60 seconds, a flow rate of 100 μl/minute and Tie2 concentrations of 5 μM, 2.5 μM, 1.25 μM, 625 nM, 313 nM and 156 nM. Tie2 concentrations of 5 μM, 2.5 μM and 1.25 μM were injected twice. Results were analyzed using Biacore T200 Evaluation Software v3.0 (GE Life Sciences). Results from all three surface densities were analyzed together using the 1:1 Binding model with multiple Rmax and the RI parameter set to zero.

[2] = molecular target: T1, recombinant cyno Tie2 extracellular …; test: SPR, IgG captured, 37C
Experimental: A human antibody capture chip was prepared using a Series S CM5 chip (GE Life Sciences), a human antibody capture kit (GE Life Sciences) and an amine coupling kit (GE Life Sciences). Antibodies diluted to 5 μg/ml in running buffer (10 mM HEPES, 150 mM NaCl, 0.05% Tween 20, 1 mM EDTA, pH 7.4) were non-covalently captured using a contact time of 20 seconds and a flow rate of 10 μl/minute. Binding to 300 nM and 1500 nM recombinant Tie2 was analyzed at 37° C. using a Single Cycle Kinetics method with a contact time of 60 seconds, a dissociation time of 120 seconds and a flow rate of 50 μl/min. Between cycles, the surface was regenerated by a 30 second injection of 3M MgCl₂ at a flow rate of 30 μl/min. Values for antibody capture levels and analyte binding levels were obtained from the Report Point Table (Biacore Evaluation Software v3.0, GE Life Sciences). […] Table 16: Experiment A; Table 17: Experiment B.

[3] = molecular target: T2, omalizumab; test: phage ELISA
T2 construct: Used as irrelevant coated protein; also called irrelevant Fc-containing protein; not shown: the constant regions

[4] = molecular target: T3, mouse Tie2 ECD5 (mouse, UniProt Q02858 23-442, limits assumed); test: ELISA: mouse Tie2 ECD5 construct immobilized, serial dilutions of IgG, anti-huFc-HRP
T3 construct: domain: ECD5 (Ig1, Ig2, EGF and Ig3 domains); also called mECD5
Excerpt: (§1) Plates were washed and detected with anti-huFC-conjugated HRP secondary antibody using the methods above.

[5] = molecular target: T4, human Tie1 (human, UniProt P35590 22-759); test: ELISA: human Tie1 immobilized, serial dilutions of IgG, anti-huFc-HRP
T4 construct: extracellular domain
T4 sequence (looked up): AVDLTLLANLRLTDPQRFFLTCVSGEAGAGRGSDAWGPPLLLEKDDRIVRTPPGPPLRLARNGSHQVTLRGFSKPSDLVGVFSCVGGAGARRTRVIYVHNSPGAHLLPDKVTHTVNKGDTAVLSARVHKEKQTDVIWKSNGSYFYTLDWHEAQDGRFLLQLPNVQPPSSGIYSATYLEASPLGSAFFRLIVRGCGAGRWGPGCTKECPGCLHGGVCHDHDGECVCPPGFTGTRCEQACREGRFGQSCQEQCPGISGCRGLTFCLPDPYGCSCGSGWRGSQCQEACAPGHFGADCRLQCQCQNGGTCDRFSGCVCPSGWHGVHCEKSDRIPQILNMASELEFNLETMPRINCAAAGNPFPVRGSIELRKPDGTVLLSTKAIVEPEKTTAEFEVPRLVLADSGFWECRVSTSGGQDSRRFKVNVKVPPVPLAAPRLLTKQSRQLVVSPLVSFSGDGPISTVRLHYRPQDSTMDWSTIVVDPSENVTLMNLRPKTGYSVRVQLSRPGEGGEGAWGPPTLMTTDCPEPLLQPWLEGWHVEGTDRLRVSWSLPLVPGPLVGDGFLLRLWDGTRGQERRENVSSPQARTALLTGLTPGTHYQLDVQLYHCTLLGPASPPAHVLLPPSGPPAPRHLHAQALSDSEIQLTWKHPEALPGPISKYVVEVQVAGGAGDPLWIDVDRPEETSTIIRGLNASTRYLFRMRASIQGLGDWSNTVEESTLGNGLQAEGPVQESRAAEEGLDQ
Excerpt: as §1
The binding ELISA was also used with immobilized Tie1 protein to assess Tie1 binding.

B1: Tie2.1 (antibody, human IgG1, V domains shown)
VH: EVQLVESGGGLVQPGGSLRLSCAASGFTFSNTDISWVRQAPGKGLEWVGRISPSDGNTYYADSVKGRFTISADTSKNTAYLQMNSLRAEDTAVYYCARRTRWASWAMDYWGQGTLVTVSS
VL: DIQMTQSPSSLSASVGDRVTITCRASQDVSTAVAWYQQKPGKAPKLLIYSASFLYSGVPSRFSGSGSGTDFTLTISSLQPEDFATYYCQQSYTTPPTFGQGTKVEIKR
notes: human IgG1 in all later assays; also called Ab1; Tie2.1.M100c
koff [1]: 0.44 s⁻¹ | kon [1]: 150000 M⁻¹ s⁻¹ | Normalized Binding Signal, 300 nM [2]: 0.08 | binding result [3]: no binding | binding result [4]: binds | binding result [5]: no binding (tested: 200 nM)
